{"source": "patent US20040258705A1", "about": "“Use of lectins to promote oligomerization of glycoproteins and antigenic molecules” (Antigenics Inc., priority 2003, published 2004)", "molecules": {"B1": {"name": "Meth A gp96 (Bx): Meth A gp96 prepared with buffer exchange step between Con A and DEAE columns, increased Con A content (protein, UniProt P08113 22-802, looked up)", "Endoplasmin": "DDEVDVDGTVEEDLGKSREGSRTDDEVVQREEEAIQLDGLNASQIRELREKSEKFAFQAEVNRMMKLIINSLYKNKEIFLRELISNASDALDKIRLISLTDENALAGNEELTVKIKCDKEKNLLHVTDTGVGMTREELVKNLGTIAKSGTSEFLNKMTEAQEDGQSTSELIGQFGVGFYSAFLVADKVIVTSKHNNDTQHIWESDSNEFSVIADPRGNTLGRGTTITLVLKEEASDYLELDTIKNLVRKYSQFINFPIYVWSSKTETVEEPLEEDEAAKEEKEESDDEAAVEEEEEEKKPKTKKVEKTVWDWELMNDIKPIWQRPSKEVEEDEYKAFYKSFSKESDDPMAYIHFTAEGEVTFKSILFVPTSAPRGLFDEYGSKKSDYIKLYVRRVFITDDFHDMMPKYLNFVKGVVDSDDLPLNVSRETLQQHKLLKVIRKKLVRKTLDMIKKIADEKYNDTFWKEFGTNIKLGVIEDHSNRTRLAKLLRFQSSHHSTDITSLDQYVERMKEKQDKIYFMAGSSRKEAESSPFVERLLKKGYEVIYLTEPVDEYCIQALPEFDGKRFQNVAKEGVKFDESEKTKESREATEKEFEPLLNWMKDKALKDKIEKAVVSQRLTESPCALVASQYGWSGNMERIMKAQAYQTGKDISTNYYASQKKTFEINPRHPLIRDMLRRIKEDEDDKTVMDLAVVLFETATLRSGYLLPDTKAYGDRIERMLRLSLNIDPEAQVEEEPEEEPEDTSEDAEDSEQDEGEEMDAGTEEEEEETEKESTEKDEL", "modifications": "tumor-derived; contains Con A", "notes": "Meth A gp96 prepared with buffer exchange step between Con A and DEAE columns, increased Con A content"}}, "key": {"[1]": {"test_system": "Meth A-specific CD4+ T cell clone 24D3 with irradiated BALB/c splenocytes", "test": "Meth A in vitro antigen representation assay", "format": "cell-based, mouse (BALB/c)", "settings": "Meth A gp96; versus matched preparation without buffer exchange; IL-5 ELISA", "description": "Materials: irradiated BALB/c splenocytes were used as the Antigen Presenting Cells (APCs). The Meth A-specific CD4^+ T cell clone, 24D3, was used. They are restricted by the MHClI molecule I-Ed, and are specific for the antigenic peptide contained within the sequence […]. The medium used for this assay was RPMI 1640 (Gibco-BRL). […] The wild-type form of the L 1 peptide ([…]) was used as a negative control, and the mutated form of the L11 peptide ([…]) was used as the positive control.\nThe resulting supernatant was further purified using Con A and DEAE chromatography.\nRe-Presentation Assay: 2×104 of Meth A specific CD4^+ T cell clones (24D3) were incubated with 5×105 of irradiated BALB/c splenic APCs in the presence of various concentration of gp96 derived from Meth A or other sources (100, 50, 25, 12.5, 6.25 μg/ml final concentration) for 48-72 hrs in the 96 well flat bottom plate in 200 μl of final volume. Wild type ribosomal protein L11 peptide and mutated ribosomal protein L11 peptide were added in replicate wells and used as a negative control or positive control respectively. After 48-72 hours of incubation at 37° C., 5% CO2, 100 μl of supernatant was taken and IL-5 production was measured by ELISA."}, "Meth A cells": {"test_system": "Meth A cells", "test": "In vivo Meth A tumor inhibition (tumor protection / rejection) assay", "design": "species or system BALB/c mice", "settings": "Meth A gp96, dose of 10 μg intradermally day 0 and 7; versus matched preparation without buffer exchange", "method": "(§1) In vivo Meth A growth inhibition assay: BALB/c mice (n=30/group) were immunized on day 0 and day 7 with 10 or 50 μg of gp96 intradermally in the flank. On study day 14, mice were challenged with 1×10^5 Meth A cells intradermally in a total volume of 100 μl. Growing tumors were monitored during the subsequent four weeks. All animals were euthanized on study day 41 after a final tumor measurement. Data was reported as percentage of animals that are tumor-free on study day 41. Control groups included un-immunized (diluent—negative control) and immunized with irradiated Meth A cells (positive control).\nas §1, with “(n=10/group)” for “(n=30/group)”, “10” for “10 or 50”, “gl.” for “μl.”\nas §1, with “(n=10/group)” for “(n=30/group)”, “10” for “10 or 50”\nas §1, with “mice (n=10/group)” for “mice (n=30/group)”, “with 0.3” for “with 10”, “or 3” for “or 50”, “gp96 alone or in combination with Con A” for “gp96”"}}, "data": [{"molecule": "B1", "values": [{"measurement": "in vitro activity in the Meth A representation assay", "setting": "[1]", "result": "higher in vitro antigen representation"}, {"measurement": "in vivo tumor protection activity", "setting": "Meth A cells", "result": "higher in vivo tumor protection activity"}]}]}
